In one assay the target is T1, human LIV-1 (human, UniProt Q13433 29-755).
T1 construct: whole, on cells; also called H-LIV1
T1 sequence (looked up): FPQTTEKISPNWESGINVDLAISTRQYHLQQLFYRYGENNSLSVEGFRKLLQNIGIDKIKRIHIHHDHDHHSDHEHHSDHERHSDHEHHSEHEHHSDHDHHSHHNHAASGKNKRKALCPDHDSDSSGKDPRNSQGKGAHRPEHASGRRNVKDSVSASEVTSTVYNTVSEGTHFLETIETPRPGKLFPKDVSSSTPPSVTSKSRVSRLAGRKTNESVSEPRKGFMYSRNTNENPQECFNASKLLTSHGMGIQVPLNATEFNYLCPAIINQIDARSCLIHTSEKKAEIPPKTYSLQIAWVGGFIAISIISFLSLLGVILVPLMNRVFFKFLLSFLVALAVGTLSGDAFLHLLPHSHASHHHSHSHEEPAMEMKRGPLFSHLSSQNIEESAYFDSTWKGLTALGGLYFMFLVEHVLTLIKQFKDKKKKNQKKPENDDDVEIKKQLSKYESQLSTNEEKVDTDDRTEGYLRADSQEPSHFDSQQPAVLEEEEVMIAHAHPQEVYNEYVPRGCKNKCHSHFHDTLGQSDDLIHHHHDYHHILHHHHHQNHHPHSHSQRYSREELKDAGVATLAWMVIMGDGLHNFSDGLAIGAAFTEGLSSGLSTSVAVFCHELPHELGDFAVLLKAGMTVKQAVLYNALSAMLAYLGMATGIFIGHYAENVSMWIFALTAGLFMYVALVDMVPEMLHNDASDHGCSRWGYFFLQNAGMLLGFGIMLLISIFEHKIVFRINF
The experiment in a line: FACS, human LIV-1 cells. Here is the method: In this example, cell based binding of humanized antibodies (hu Abs) on human LIV-1-expressing cells were assessed using flow cytometry.
Cell based binding of hu-Abs on human LIV-1 expressing cells were assessed using flow cytometry. Briefly, the HEK293/H_LIV-1 cells were incubated with hu-Abs (from 100 nM, 6 folds dilution, 8 points). After incubation at 4° C. for 60 minutes, the cells were washed with FACS buffer twice, then stained with fluorescent conjugated secondary antibody at 4° C. for 30 minutes. After that the cells were washed twice and analyzed by flow cytometry.

The target of a further assay is cynomolgus LIV-1 (cynomolgus, UniProt A0A2K5WH46 30-741). As to the kind of experiment: FACS, cyno LIV-1 cells.
cynomolgus LIV-1, sequence (A0A2K5WH46 entry or part of it): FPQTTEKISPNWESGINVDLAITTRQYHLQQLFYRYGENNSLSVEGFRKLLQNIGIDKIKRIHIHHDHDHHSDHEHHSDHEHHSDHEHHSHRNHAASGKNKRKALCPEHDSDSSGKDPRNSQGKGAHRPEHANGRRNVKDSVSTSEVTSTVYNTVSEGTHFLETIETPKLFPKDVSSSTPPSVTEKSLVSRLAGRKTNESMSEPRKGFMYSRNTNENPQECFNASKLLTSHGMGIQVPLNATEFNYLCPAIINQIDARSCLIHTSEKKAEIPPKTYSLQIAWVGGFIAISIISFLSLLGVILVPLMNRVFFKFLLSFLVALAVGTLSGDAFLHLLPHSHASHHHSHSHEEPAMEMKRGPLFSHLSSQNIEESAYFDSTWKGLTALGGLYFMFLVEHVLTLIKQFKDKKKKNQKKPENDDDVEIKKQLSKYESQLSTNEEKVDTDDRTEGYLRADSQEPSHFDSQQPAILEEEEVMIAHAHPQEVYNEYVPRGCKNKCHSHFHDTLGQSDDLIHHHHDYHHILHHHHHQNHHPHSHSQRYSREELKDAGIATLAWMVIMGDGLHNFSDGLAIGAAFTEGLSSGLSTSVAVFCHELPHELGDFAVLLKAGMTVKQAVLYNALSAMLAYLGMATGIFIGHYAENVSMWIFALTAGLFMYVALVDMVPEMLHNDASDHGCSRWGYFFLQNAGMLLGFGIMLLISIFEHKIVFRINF

B1: 290F10G10.p1.Z9 (antibody, V domains shown)
VH: EVQLVQSGAEVKKPGASVKVSCKASGYTFTSYWIHWVRQAPGQGLEWIGTIYPGDADTRSTQKFKDKATVTADKSTSTVYMELSSLRSEDTAVYYCARSLIHDDYDKYYFDYWGQGTTVTVSS
VL: DIQMTQSPSSLSASVGDRVTITCKARQDINKYIAWYQHKPGKGPKLLIHYTSILQPGIPSRFSGSGSGRDYTFTISSLQPEDIATYYCLQYDYFFTFGGGTKVEIK
Regarding B1, in the assay with human LIV-1, it took 0.51 nM to reach a half-maximal effect (EC50) and the “Top (MFI)” value worked out at 7940 MFI. Also, in the assay with cynomolgus LIV-1, the EC50 came to 0.68 nM and the “Top (MFI)” value amounted to 7630 MFI.

B2: 290F10G10.p1.Z12 (antibody, V domains shown)
VH: EVQLVQSGAEVKKPGASVKVSCKASGYTFTSYWIHWVRQAPGQGLEWMGTIYPGDADTRSTQKFKDRVTVTADKSTSTVYMELSSLRSEDTAVYYCTRSLIHDDYDKYYFDYWGQGTTVTVSS
VL: DIQMTQSPSSLSASVGDRVTITCKARQDINKYIAWYQHKPGKGPKLLIHYTSILQPGIPSRFSGSGSGRDYTFTISSLQPEDIATYYCLQYDYFFTFGGGTKVEIK
B2: in the assay with human LIV-1, it took 0.26 nM to reach a half-maximal effect (EC50) and the “Top (MFI)” value came out at 7920 MFI. Also, in the assay with cynomolgus LIV-1, the midpoint of the response, the EC50, lay at 0.38 nM and the “Top (MFI)” value stood at 7510 MFI.

B3: 290F10G10.p1.Z10 (antibody, V domains shown)
VH: EVQLVQSGAEVKKPGASVKVSCKASGYTFTSYWIHWVRQAPGQGLEWMGTIYPGDADTRSTQKFKDRVTVTADKSTSTVYMELSSLRSEDTAVYYCTRSLIHDDYDKYYFDYWGQGTTVTVSS
VL: DIQMTQSPSSLSASVGDRVTITCKARQDINKYIAWYQQKPGKAPKLLIYYTSILQPGVPSRFSGSGSGRDYTFTISSLQPEDIATYYCLQYDYFFTFGGGTKVEIK
On to B3, for which, in the assay with human LIV-1, the EC50 came to 0.49 nM and the “Top (MFI)” value came out at 7290 MFI. Moreover, in the assay with cynomolgus LIV-1, the EC50 was 0.69 nM and the “Top (MFI)” value amounted to 6740 MFI.

B4: 290F10G10.p1.Z13 (antibody, V domains shown)
VH: EVQLVQSGAEVKKPGASVKVSCKASGYTFTSYWIHWVRQAPGQGLEWIGTIYPGDADTRSTQKFKDKATVTADKSTSTVYMELSSLRSEDTAVYYCTRSLIHDDYDKYYFDYWGQGTTVTVSS
VL: DIQMTQSPSSLSASVGDRVTITCKARQDINKYIAWYQQKPGKAPKLLIYYTSILQPGVPSRFSGSGSGRDYTFTISSLQPEDIATYYCLQYDYFFTFGGGTKVEIK
Regarding B4, the EC50 with human LIV-1 stood at 0.32 nM; in the assay with cynomolgus LIV-1, 0.46 nM. Besides, the “Top (MFI)” value amounted to 7630 MFI with human LIV-1 and 7180 MFI with cynomolgus LIV-1.

B5: 290F10G10.p1.Z16 (antibody, V domains shown)
VH: EIQLVQSGAEVKKPGASVKVSCKASGYTFTSYWIHWVREAPGQGLEWIGTIYPGDADTRSTQKFKDKATVTADKSTSTVYMELSSLRSEDTAVYYCTRSLIHDDYDKYYFDYWGQGTTVTVSS
VL: DIQMTQSPSSLSASVGDRVTITCKARQDINKYIAWYQQKPGKAPKLLIYYTSILQPGVPSRFSGSGSGRDYTFTISSLQPEDIATYYCLQYDYFFTFGGGTKVEIK
As for B5, in the assay with human LIV-1, the EC50 was 0.43 nM and the “Top (MFI)” value was determined as 7440 MFI. In the assay with cynomolgus LIV-1, the EC50 was found to be 0.61 nM and the “Top (MFI)” value was 6920 MFI.

B6: 290F10G10.p1.Z11 (antibody, V domains shown)
VH: EVQLVQSGAEVKKPGASVKVSCKASGYTFTSYWIHWVRQAPGQGLEWMGTIYPGDADTRSTQKFKDRVTVTADKSTSTVYMELSSLRSEDTAVYYCTRSLIHDDYDKYYFDYWGQGTTVTVSS
VL: DIQMTQSPSSLSASVGDRVTITCKARQDINKYIAWYQQKPGKAPKLLIHYTSILQPGIPSRFSGSGSGRDYTFTISSLQPEDIATYYCLQYDYFFTFGGGTKVEIK
Regarding B6, the EC50 with human LIV-1 was determined as 0.25 nM; with cynomolgus LIV-1, 0.32 nM. In addition, the results for the “Top (MFI)” value with human LIV-1 and in the assay with cynomolgus LIV-1 were 7820 MFI and 7410 MFI, respectively.

B7: 290F10G10.p1.Z18 (antibody, V domains shown)
VH: EIQLVQSGAEVKKPGASVKVSCKASGYTFTSYWIHWVREAPGQGLEWIGTIYPGDADTRSTQKFKDKATVTADKSTSTVYMELSSLRSEDTAVYYCTRSLIHDDYDKYYFDYWGQGTTVTVSS
VL: DIQMTQSPSSLSASVGDRVTITCKARQDINKYIAWYQHKPGKGPKLLIHYTSILQPGIPSRFSGSGSGRDYTFTISSLQPEDIATYYCLQYDYFFTFGGGTKVEIK
B7: in the assay with human LIV-1, the response was half-maximal at 0.36 nM (EC50) and the “Top (MFI)” value worked out at 7430 MFI. In the assay with cynomolgus LIV-1, the EC50 came to 0.56 nM and the “Top (MFI)” value was determined as 7040 MFI.

B8: 290F10G10.p1.Z14 (antibody, V domains shown)
VH: EVQLVQSGAEVKKPGASVKVSCKASGYTFTSYWIHWVRQAPGQGLEWIGTIYPGDADTRSTQKFKDKATVTADKSTSTVYMELSSLRSEDTAVYYCTRSLIHDDYDKYYFDYWGQGTTVTVSS
VL: DIQMTQSPSSLSASVGDRVTITCKARQDINKYIAWYQQKPGKAPKLLIHYTSILQPGIPSRFSGSGSGRDYTFTISSLQPEDIATYYCLQYDYFFTFGGGTKVEIK
As to B8, in the assay with human LIV-1, the EC50 amounted to 0.3 nM and the “Top (MFI)” value was 7410 MFI. Besides, in the assay with cynomolgus LIV-1, the EC50 was determined as 0.48 nM and the “Top (MFI)” value amounted to 7220 MFI.

B9: 290F10G10.p1.Z15 (antibody, V domains shown)
VH: EVQLVQSGAEVKKPGASVKVSCKASGYTFTSYWIHWVRQAPGQGLEWIGTIYPGDADTRSTQKFKDKATVTADKSTSTVYMELSSLRSEDTAVYYCTRSLIHDDYDKYYFDYWGQGTTVTVSS
VL: DIQMTQSPSSLSASVGDRVTITCKARQDINKYIAWYQHKPGKGPKLLIHYTSILQPGIPSRFSGSGSGRDYTFTISSLQPEDIATYYCLQYDYFFTFGGGTKVEIK
On to B9, for which, in the assay with human LIV-1, the midpoint of the response, the EC50, lay at 0.27 nM and the “Top (MFI)” value worked out at 7550 MFI. Moreover, in the assay with cynomolgus LIV-1, the EC50 turned out to be 0.36 nM and the “Top (MFI)” value stood at 7210 MFI.

B10: 290F10G10.p1.Z17 (antibody, V domains shown)
VH: EIQLVQSGAEVKKPGASVKVSCKASGYTFTSYWIHWVREAPGQGLEWIGTIYPGDADTRSTQKFKDKATVTADKSTSTVYMELSSLRSEDTAVYYCTRSLIHDDYDKYYFDYWGQGTTVTVSS
VL: DIQMTQSPSSLSASVGDRVTITCKARQDINKYIAWYQQKPGKAPKLLIHYTSILQPGIPSRFSGSGSGRDYTFTISSLQPEDIATYYCLQYDYFFTFGGGTKVEIK
As for B10, in the assay with human LIV-1, the EC50 is 0.39 nM and the “Top (MFI)” value amounted to 7520 MFI. Besides, in the assay with cynomolgus LIV-1, the EC50 amounted to 0.51 nM and the “Top (MFI)” value worked out at 6820 MFI.

Source of the values: patent US20240325555A1 (LANOVA MEDICINES, published 2024).
